Experimental data published in paper PMC2901844 (DNA repair, 2010).

Legend:
[1] = target: T1, full length Cricetulus griseus Xrcc1-ECFP (Cricetulus griseus, UniProt O54935 1-633); assay: pull-down
[2] = target: Xrcc1(1–325)-ECFP (Cricetulus griseus, UniProt O54935 1-325); assay: far-Western, overlay or dot blot
[3] = target: T1, full length Cricetulus griseus …; assay: far-Western, overlay or dot blot

T1 sequence (O54935 whole entry): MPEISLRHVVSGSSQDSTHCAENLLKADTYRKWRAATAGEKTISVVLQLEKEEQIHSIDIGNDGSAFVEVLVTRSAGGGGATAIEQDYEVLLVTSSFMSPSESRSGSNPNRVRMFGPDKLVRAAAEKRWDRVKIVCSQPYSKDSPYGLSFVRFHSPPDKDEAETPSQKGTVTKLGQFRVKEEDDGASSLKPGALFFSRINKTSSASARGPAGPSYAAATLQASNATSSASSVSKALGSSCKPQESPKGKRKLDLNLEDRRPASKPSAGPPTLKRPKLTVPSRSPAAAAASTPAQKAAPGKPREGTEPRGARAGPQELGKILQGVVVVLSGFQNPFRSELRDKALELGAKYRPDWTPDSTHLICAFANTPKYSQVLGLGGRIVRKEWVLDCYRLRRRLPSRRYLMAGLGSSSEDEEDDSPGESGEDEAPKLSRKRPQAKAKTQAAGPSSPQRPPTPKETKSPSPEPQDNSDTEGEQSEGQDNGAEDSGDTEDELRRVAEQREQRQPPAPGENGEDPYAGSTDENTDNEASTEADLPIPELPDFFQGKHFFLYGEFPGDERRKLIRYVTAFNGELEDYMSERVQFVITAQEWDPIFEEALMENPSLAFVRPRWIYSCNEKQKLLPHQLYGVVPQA
Sequence of Xrcc1(1–325)-ECFP (O54935 1-325): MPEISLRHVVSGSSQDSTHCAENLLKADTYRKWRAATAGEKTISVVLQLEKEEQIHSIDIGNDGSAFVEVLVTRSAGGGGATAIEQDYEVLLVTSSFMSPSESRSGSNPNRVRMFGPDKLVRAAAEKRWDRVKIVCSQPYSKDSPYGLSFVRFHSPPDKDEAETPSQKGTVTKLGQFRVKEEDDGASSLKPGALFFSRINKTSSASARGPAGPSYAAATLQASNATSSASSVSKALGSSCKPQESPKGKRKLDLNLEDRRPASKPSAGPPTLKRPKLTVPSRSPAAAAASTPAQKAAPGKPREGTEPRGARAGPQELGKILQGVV

binding result [1]	binding result [2]	binding result [3]	Binder
binds	–	–	catalytic domain of human UNG2 (Δ93 UNG2) (domain or fragment, UniProt P13051-1 94-313, looked up) FGESWKKHLSGEFGKPYFIKLMGFVAEERKHYTVYPPPHQVFTWTQMCDIKDVKVVILGQDPYHGPNQAHGLCFSVQRPVPPPPSLENIYKELSTDIEDFVHPGHGDLSGWAKQGVLLLNAVLTVRAHQANSHKERGWEQFTDAVVSWLNQNSNGLVFLLWGSYAQKKGSAIDRKRHHVLQTAHPSPLSVYRGFFGCRHFSKTNELLQKSGKKPIDWKEL
–	binds	binds	Cy-3 labelled Δ93 UNG2 (domain or fragment, human, UniProt P13051-1 94-313, looked up, Cy-3 label (Cy 3 Ab Labeling kit), sites not stated) FGESWKKHLSGEFGKPYFIKLMGFVAEERKHYTVYPPPHQVFTWTQMCDIKDVKVVILGQDPYHGPNQAHGLCFSVQRPVPPPPSLENIYKELSTDIEDFVHPGHGDLSGWAKQGVLLLNAVLTVRAHQANSHKERGWEQFTDAVVSWLNQNSNGLVFLLWGSYAQKKGSAIDRKRHHVLQTAHPSPLSVYRGFFGCRHFSKTNELLQKSGKKPIDWKEL
